This note sets out measurements from paper PMC3357048 (Nature structural & molecular biology, 2011).

In series [1] the target is sFcεRIα W87D (immobilised for SPR) (human) (UniProt P12319). The series can be described thus: SPR. (In SPR one partner is held on a chip, and binding of the other changes the refractive index at the surface.)
The series “crystal structure” concerns the molecule itself. Description: crystal structure.

In series [1], “Fcε3-4 (sub-fragment of IgE-Fc lacking the Cε2 domains) (from UniProt P01854 211-427) (domain or fragment)” showed a dH of -15.2 kcal/mol.

B1: human IgE-Fc (dimer of Cε2-Cε3-Cε4 domains) (domain or fragment)
chain: CSRDFTPPTVKILQSSCDGGGHFPPTIQLLCLVSGYTPGTINITWLEDGQVMDVDLSTASTTQEGELASTQSELTLSQKHWLSDRTYTCQVTYQGHTFEDSTKKCADSNPRGVSAYLSRPSPFDLFIRKSPTITCLVVDLAPSKGTVNLTWSRASGKPVNHSTRKEEKQRNGTLTVTSTLPVGTRDWIEGETYQCRVTHPHLPRALMRSTTKTSGPRAAPEVYAFATPEWPGSRDKRTLACLIQNFMPEDISVQWLHNEVQLPDARHSTTQPRKTKGSGFFVFSRLEVTRAEWEQKDEFICRAVHEAASPSQTVQRAVSVNPGL
modifications: N-linked high-mannose carbohydrate at Asn394
Take B1: in “crystal structure”, the stoichiometry N (as a rule, the number of molecules, sites or subunits per partner or assembly) turned out to be 2.
